Assays:
recombinant PKIB = test system: T1, recombinant PKIB
T1 sequence: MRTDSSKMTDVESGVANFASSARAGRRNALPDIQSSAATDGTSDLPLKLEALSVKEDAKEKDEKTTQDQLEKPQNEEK

For recombinant PKA-C kinase, the “phosphorylation of Akt-Ser473, in vitro kinase assay with recombinant proteins (western blot with anti-phospho-Akt (Ser473) antibody)” value (recombinant Akt) was “phosphorylated Ser473-specific antibody detected phosphorylated Akt when PKA-C kinase reacted with recombinant Akt” and the “phosphorylation of Akt-Ser473 by PKA-C, in vitro kinase assay with recombinant proteins” value (recombinant PKIB) was “the phosphorylation level of Akt (Ser473) was clearly enhanced by addition of PKIB”.
